The results in this text go back to patent US7410801 (UNIVERSITY OF DELHI DEPARTMENT OF BIOCHEMISTRY, dated 2008).

This experiment addresses mesothelin (UniProt Q13421 296-598). The experiment is described as follows: ELISA, purified phages added to mesothelin coated wells.

Chain of mesothelin (Q13421 other isoform, or with tags, fused parts or gaps limits assumed): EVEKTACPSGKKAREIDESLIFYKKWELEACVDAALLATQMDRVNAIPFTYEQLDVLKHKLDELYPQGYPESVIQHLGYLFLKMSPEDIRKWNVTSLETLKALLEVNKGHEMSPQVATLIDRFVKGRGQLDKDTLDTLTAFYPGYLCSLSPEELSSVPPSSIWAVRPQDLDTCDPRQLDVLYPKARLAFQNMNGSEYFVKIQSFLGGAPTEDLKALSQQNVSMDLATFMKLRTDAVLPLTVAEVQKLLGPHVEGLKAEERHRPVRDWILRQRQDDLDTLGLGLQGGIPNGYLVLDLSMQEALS

B1: D-cmyc fusion protein displayed on lambda phage λDcDL1 (other)
chain (part 1 of 2): MTSKETFTHYQPQGNSDPAHTATAPGGLSAKAPAMTPLMLDTSSRKLVAWDGTTDGAAVGILAVAADQTSTTLTFYKSGTFRYEDVLWPEAASDETKKRTAFAGTAISIV
chain (part 2 of 2): EQKLISEEDL
notes: also called DcDL1 phages
Regarding B1, the binding result was “no binding”.
